Laboratory results as given in publication doi:10.1101/2022.02.09.479746 (bioRxiv, 2022).

Molecular target: the molecule itself
Experiment: SEC

Protein	stoichiometry N
full-length FLAG-DFCP1 (Double FYVE Domain Containing Protein 1) (natural protein, human, UniProt Q9HBF4 1-777, looked up) MSAQTSPAEKGLNPGLMCQESYACSGTDEAIFECDECCSLQCLRCEEELHRQERLRNHERIRLKPGHVPYCDLCKGLSGHLPGVRQRAIVRCQTCKINLCLECQKRTHSGGNKRRHPVTVYNVSNLQESLEAEEMDEETKRKKMTEKVVSFLLVDENEEIQVTNEEDFIRKLDCKPDQHLKVVSIFGNTGDGKSHTLNHTFFYGREVFKTSPTQESCTVGVWAAYDPVHKVAVIDTEGLLGATVNLSQRTRLLLKVLAISDLVIYRTHADRLHNDLFKFLGDASEAYLKHFTKELKATTARCGLDVPLSTLGPAVIIFHETVHTQLLGSDHPSEVPEKLIQDRFRKLGRFPEAFSSIHYKGTRTYNPPTDFSGLRRALEQLLENNTTRSPRHPGVIFKALKALSDRFSGEIPDDQMAHSSFFPDEYFTCSSLCLSCGVGCKKSMNHGKEGVPHEAKSRCRYSHQYDNRVYTCKACYERGEEVSVVPKTSASTDSPWMGLAKYAWSGYVIECPNCGVVYRSRQYWFGNQDPVDTVVRTEIVHVWPGTDGFLKDNNNAAQRLLDGMNFMAQSVSELSLGPTKAVTSWLTDQIAPAYWRPNSQILSCNKCATSFKDNDTKHHCRACGEGFCDSCSSKTRPVPERGWGPAPVRVCDNCYEARNVQLAVTEAQVDDEGGTLIARKVGEAVQNTLGAVVTAIDIPLGLVKDAARPAYWVPDHEILHCHNCRKEFSIKLSKHHCRACGQGFCDECSHDRRAVPSRGWDHPVRVCFNCNKKPGDL	2
MBP-DFCP1 112-415 (isolated GTPase domain), wild type (domain or fragment, human, UniProt Q9HBF4 112-415, looked up) NKRRHPVTVYNVSNLQESLEAEEMDEETKRKKMTEKVVSFLLVDENEEIQVTNEEDFIRKLDCKPDQHLKVVSIFGNTGDGKSHTLNHTFFYGREVFKTSPTQESCTVGVWAAYDPVHKVAVIDTEGLLGATVNLSQRTRLLLKVLAISDLVIYRTHADRLHNDLFKFLGDASEAYLKHFTKELKATTARCGLDVPLSTLGPAVIIFHETVHTQLLGSDHPSEVPEKLIQDRFRKLGRFPEAFSSIHYKGTRTYNPPTDFSGLRRALEQLLENNTTRSPRHPGVIFKALKALSDRFSGEIPDDQ	2
MBP-DFCP1 112-415 R266Q (GTPase domain with the cancer-related mutation R266Q) (domain or fragment, human, UniProt Q9HBF4 112-415, looked up) NKRRHPVTVYNVSNLQESLEAEEMDEETKRKKMTEKVVSFLLVDENEEIQVTNEEDFIRKLDCKPDQHLKVVSIFGNTGDGKSHTLNHTFFYGREVFKTSPTQESCTVGVWAAYDPVHKVAVIDTEGLLGATVNLSQRTRLLLKVLAISDLVIYQTHADRLHNDLFKFLGDASEAYLKHFTKELKATTARCGLDVPLSTLGPAVIIFHETVHTQLLGSDHPSEVPEKLIQDRFRKLGRFPEAFSSIHYKGTRTYNPPTDFSGLRRALEQLLENNTTRSPRHPGVIFKALKALSDRFSGEIPDDQ	2
